Data: patent CN115785267A (SANYOU BIO INC, dated 2023)

T1: 人IL-23-His (human, UniProt Q9NPF7 20-189; P29460 23-328, limits assumed)
T1 sequence (looked up) 1: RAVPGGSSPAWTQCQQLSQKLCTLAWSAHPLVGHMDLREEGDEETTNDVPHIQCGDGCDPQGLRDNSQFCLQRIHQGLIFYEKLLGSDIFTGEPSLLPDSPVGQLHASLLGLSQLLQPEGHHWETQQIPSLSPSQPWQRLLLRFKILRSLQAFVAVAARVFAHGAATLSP
T1 sequence (looked up) 2: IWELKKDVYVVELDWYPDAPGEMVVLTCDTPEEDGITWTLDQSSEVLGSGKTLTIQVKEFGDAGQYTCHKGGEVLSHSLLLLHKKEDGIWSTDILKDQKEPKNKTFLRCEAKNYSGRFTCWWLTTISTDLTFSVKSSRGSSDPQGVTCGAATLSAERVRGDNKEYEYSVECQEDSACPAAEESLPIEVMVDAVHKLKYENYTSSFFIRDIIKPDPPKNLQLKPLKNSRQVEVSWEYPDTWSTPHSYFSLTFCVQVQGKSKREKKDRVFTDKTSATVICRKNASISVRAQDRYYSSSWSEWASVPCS


Experiments:
人IL-23-His [1] = target: T1, 人IL-23-His; experiment: cell-based or functional assay
人IL-23-His [2] = target: T1, 人IL-23-His; experiment: Biacore (SPR), human IL-23-His

| Binder | 抑制IL-23激活小鼠脾细胞分泌IL-17: 剂量浓度 at which the inhibition is better than that of Guselkumab (人IL-23-His [1]) [µg/mL] | Kd (人IL-23-His [2]) [nM] | koff (人IL-23-His [2]) [s⁻¹] | kon (人IL-23-His [2]) [M⁻¹ s⁻¹] |
| --- | --- | --- | --- | --- |
| 改造后抗体S5-5HWTL (antibody, V domains shown) VH: QVQLVQSGAEVKKPGSSVKVSCKASGGTFSSYAISWVRQAPGQGLEWMGGIIPIFGTANYAQKFQGRVTITADESTSTAYMELSSLRSEDTAVYYCARDRFGLYYYYGMDVWGQGTMVTVSS VL: QSVLTQPPSVSGAPGQRVTISCTGGSSSIGAGYDVQWYRQLPGIAPKLLIYRSTNRPSGVPARFSGSKSGASASLAITGLQAEDEADYYCVSYDSSLGGYVFGTGTKVTVL | 0.063 | 0.0625 | 6.97e-06 | 111000 |
| 改造后抗体S5-15HWTL (antibody, V domains shown) VH: KVQLVQSGAEVKKPGSSVKVSCKASGGTFSSYAISWVRQAPGQGLEWMGGFIPIFGTANYAQKFQGRVTITADESTSTAYMELSSLRSEDTAVYYCARDRTSLYYYYGMDVWGQGTMVTVSS VL: QSVLTQPPSVSGAPGQRVTISCTGGSSSIGAGYDVQWYRQLPGIAPKLLIYRSTNRPSGVPARFSGSKSGASASLAITGLQAEDEADYYCVSYDSSLGGYVFGTGTKVTVL | 0.167 | 0.108 | 1.18e-05 | 109000 |
| 改造后抗体S5-4H6L (antibody, V domains shown) VH: QVQLVQSGAEVKKPGSSVKVSCKASGGTFSSYAISWVRQAPGQGLEWMGGIIPIFGTANYAQKFQGRVTITADESTSTAYMELSSLRSEDTAVYYCARDRFSLYYYYGMDVWGQGTMVTVSS VL: QSVLTQPPSVSGAPGQRVTISCTGGQSSIGAGYDVQWYRQLPGIAPKLLIYRSTNRPSGVPARFSGSKSGASASLAITGLQAEDEADYYCVSYDASLGGYVFGTGTKVTVL | 0.056 | 0.0589 | 6.03e-06 | 102000 |
